Data published in patent US20050239072, “Device and methods for concentrating prion protein isoforms” (published 2005).

What was measured:
[1] = target: human recombinant PrP90-231 (lacks N-terminal 23-90) (Homo sapiens, UniProt P04156 P04156:90-231)
[2] = target: T1, human recombinant prion protein hrPrP (PrP23-231) (Homo sapiens, UniProt P04156 P04156:23-231); assay: FP filter; no tRNA; 250 mM NaCl, 2 mM MgCl2, 37 C; conditions: tags: E. coli GST fusion, GST removed by thrombin cleavage
[3] = target: T1, human recombinant prion protein hrPrP …; assay: pulldown; conditions: tags: E. coli GST fusion, GST removed by thrombin cleavage; label: none; hybridized to oligo-dT-cellulose
[4] = target: T1, human recombinant prion protein hrPrP …; assay: FP filter; conditions: tags: E. coli GST fusion, GST removed by thrombin cleavage; label: 32P internal

B1: RQ11+12 (ssRNA)
RNA: GGGGUUUCCAACCGGAAUUUGAGGGAUGCCUAGGCAUCCCCCGUGCGUCCCUUUACGAGGGAUUGUCGACUCUAGUCGACGUCUGGGCGAAAAAUGUACGAGAGGACCUUUUCGGUACAGACGGUACCUGAGGGAUGCCUAGGCAUCCCCGCGCGCCGGUUUCGGACCUCCAGUGCGUGUUACCGCACUGUCGACCC
- binding result [1]: no binding
- Kd ([2]; label: 32P internal (alpha-32P CTP)): 0.026 µM

B2: RQT157 (ssRNA)
RNA: GGGGUUUCGAACCGGAAUUUGAGGGAUGCCUAGGCAUCCCCCGUGCGUCCCUUUACGAGGGAUUGUCGACUCUAGAGGAUCCGGUACCUGAGGGAUGCCUAGGCAUCCCCGCGCGCCGGUUUCGGACCUCCAGUGCGUGUUACCGCACUGUCGACCC
- Kd ([2]; label: 32P internal): 0.056 µM

B3: RQAAA (RQ11+12 with 3' poly-A15) (ssRNA)
RNA: GGGGUUUCCAACCGGAAUUUGAGGGAUGCCUAGGCAUCCCCCGUGCGUCCCUUUACGAGGGAUUGUCGACUCUAGUCGACGUCUGGGCGAAAAAUGUACGAGAGGACCUUUUCGGUACAGACGGUACCUGAGGGAUGCCUAGGCAUCCCCGCGCGCCGGUUUCGGACCUCCAGUGCGUGUUACCGCACUGUCGACCCAAAAAAAAAAAAAAA
- binding result [3]: binds

B4: MNV:AP1 (ssRNA)
RNA: GGGUUCAUAGCCUAUUCGGCUUCGCGCAUGGGAAUUUGAGGGACGAUGGGGAAGUGGGAGCGCGUUUUAAAGGACCUUUUUCCCUCGCGUAGCUAGCUACGCGAGGUGACCCCCCGAAGGGGGGUGCCCC
- Kd [4]: 0.0038 µM
